Sequences and labels used below:
B1: GST–HCF-1rep1, wild type (HCF-1 residues 867–1071) [human] / Recombinant human O-linked β-N-acetylglucosamine transferase (OGT), wild type [human] (parent)
chain 1: PAVTTLVVKGTTGVTTLGTVTGTVSTSLAGAGGHSTSASLATPITTLGTIATLSSQVINPTAITVSAAQTTLTAAGGLTTPTITMQPVSQPTQVTLITAPSGVEAQPVHDLPVSILASPTTEQPTATVTIADSGQGDVQPGTVTLVCSNPPCETHETGTTNTATTTVVANLGGHPQPTQVQFVCDRQEAAASLVTSTVGQQNGSV
chain 2: MASSVGNVADSTGLAELAHREYQAGDFEAAERHCMQLWRQEPDNTGVLLLLSSIHFQCRRLDRSAHFSTLAIKQNPLLAEAYSNLGNVYKERGQLQEAIEHYRHALRLKPDFIDGYINLAAALVAAGDMEGAVQAYVSALQYNPDLYCVRSDLGNLLKALGRLEEAKACYLKAIETQPNFAVAWSNLGCVFNAQGEIWLAIHHFEKAVTLDPNFLDAYINLGNVLKEARIFDRAVAAYLRALSLSPNHAVVHGNLACVYYEQGLIDLAIDTYRRAIELQPHFPDAYCNLANALKEKGSVAEAEDCYNTALRLCPTHADSLNNLANIKREQGNIEEAVRLYRKALEVFPEFAAAHSNLASVLQQQGKLQEALMHYKEAIRISPTFADAYSNMGNTLKEMQDVQGALQCYTRAIQINPAFADAHSNLASIHKDSGNIPEAIASYRTALKLKPDFPDAYCNLAHCLQIVCDWTDYDERMKKLVSIVADQLEKNRLPSVHPHHSMLYPLSHGFRKAIAERHGNLCLDKINVLHKPPYEHPKDLKLSDGRLRVGYVSSDFGNHPTSHLMQSIPGMHNPDKFEVFCYALSPDDGTNFRVKVMAEANHFIDLSQIPCNGKAADRIHQDGIHILVNMNGYTKGARNELFALRPAPIQAMWLGYPGTSGALFMDYIITDQETSPAEVAEQYSEKLAYMPHTFFIGDHANMFPHLKKKAVIDFKSNGHIYDNRIVLNGIDLKAFLDSLPDVKIVKMKCPDGGDNADSSNTALNMPVIPMNTIAEAVIEMINRGQIQITINGFSISNGLATTQINNKAATGEEVPRTIIVTTRSQYGLPEDAIVYCNFNQLYKIDPSTLQMWANILKRVPNSVLWLLRFPAVGEPNIQQYAQNMGLPQNRIIFSPVAPKEEHVRRGQLADVCLDTPLCNGHTTGMDVLWAGTPMVTMPGETLASRVAASQLTCLGCLELIAKNRQEYEDIAVKLGTDLEYLKKVRGKVWKQRISSPLFNTKQYTMELERLYLQMWEHYAAGNKPDHMIKPVEVTESA

Variants of B1 are the subject of this assay. Kind of assay: in vitro HCF-1rep1-OGT binding assay (OGT pull-down, quantified immunoblot). Conditions: with Recombinant human O-linked β-N-acetylglucosamine transferase (OGT), in the presence of UDP-GlcNAc, read off a plot. For orientation: Immunoblotting shows a protein as a band on a membrane.
In the case of chain 1 E153A, the screen value (log2 fold change) came to 0.8.

These data come from publication PMC4549301 (2015).
